Experimental findings from article PMC10127277 are described below.

Broadly, the Kd is a measure of binding affinity in units of concentration.

For the assay, the target named is human RNF128 (GRAIL) extracellular domain (human) (UniProt Q8TEB7). Description: SPR; Biacore T100; biotinylated ECD (ligand) captured on a streptavidin (SA) series S chip, ~100-200 RU; non-biotinylated VHH as analyte in HBS-P+ buffer, twofold dilutions from 500 nM (RNF128 E2, RNF130 D1) or 1000 nM (RNF43 C8); injection 60 s at 30 ul/min, dissociation 240 s; regeneration 1 x 10 sec glycine pH 2.5; 1:1 Langmuir model or equilibrium. (In general: SPR reads the build-up and loss of mass on a sensor chip optically.)
Chain of human RNF128 (GRAIL) extracellular domain (human) (Q8TEB7 39-428): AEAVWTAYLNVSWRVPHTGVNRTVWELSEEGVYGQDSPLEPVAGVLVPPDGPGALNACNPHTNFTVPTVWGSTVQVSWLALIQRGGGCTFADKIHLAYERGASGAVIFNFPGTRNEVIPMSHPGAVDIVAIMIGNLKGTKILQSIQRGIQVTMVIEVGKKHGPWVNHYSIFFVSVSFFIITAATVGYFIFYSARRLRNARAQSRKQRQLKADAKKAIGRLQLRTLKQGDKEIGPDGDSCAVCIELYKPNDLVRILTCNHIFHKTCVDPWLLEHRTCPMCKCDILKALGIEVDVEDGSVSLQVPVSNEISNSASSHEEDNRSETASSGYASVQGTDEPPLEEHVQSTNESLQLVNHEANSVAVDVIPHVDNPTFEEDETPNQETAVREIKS

B1: RNF128-E2 nanobody (VHH)
VHH: QVQLQESGGGLVQAGGSLRLSCAASGSISGGKGMGWYRQAPGKEREFVAAIGSGAITYYADSVKGRFTISRDNAKNTVYLQMNSLKPEDTAVYYCAVYTTALDEYPYWGQGTQVTVSS
B1 showed a Kd of 10 nM.
